From IntAct's records for PubMed 31169361

B1: Astrotactin-1 (Homo sapiens), O14525-2 (parent)
chain: MALAGLCALLACCWGPAAVLATAAGDVDPSKELECKLKSITVSALPFLRENDLSIMHSPSASEPKLLFSVRNDFPGEMVVVDDLENTELPYFVLEISGNTEDIPLVRWRQQWLENGTLLFHIHHQDGAPSLPGQDPTEEPQHESAEEELRILHISVMGGMIALLLSILCLVMILYTRRRWCKRRRVPQPQKSASAEAANEIHYIPSVLIGGHGRESLRNARVQGHNSSGTLSIRETPILDGYEYDITDLRHHLQRECMNGGEDFASQVTRTLDSLQGCNEKSGMDLTPGSDNAKLSLMNKYKDNIIATSPVDSNHQQATLLSHTSSSQRKRINNKARAGSAFLNPEGDSGTEAENDPQLTFYTDPSRSRRRSRVGSPRSPVNKTTLTLISITSCVIGLVCSSHVNCPLVVKITLHVPEHLIADGSRFILLEGSQLDASDWLNPAQVVLFSQQNSSGPWAMDLCARRLLDPCEHQCDPETGECLCYEGYMKDPVHKHLCIRNEWGTNQGPWPYTIFQRGFDLVLGEQPSDKIFRFTYTLGEGMWLPLSKSFVIPPAELAINPSAKCKTDMTVMEDAVEVREELMTSSSFDSLEVLLDSFGPVRDCSKDNGGCSKNFRCISDRKLDSTGCVCPSGLSPMKDSSGCYDRHIGVDCSDGFNGGCEQLCLQQMAPFPDDPTLYNILMFCGCIEDYKLGVDGRSCQLITETCPEGSDCGESRELPMNQTLFGEMFFGYNNHSKEVAAGQVLKGTFRQNNFARGLDQQLPDGLVVATVPLENQCLEEISEPTPDPDFLTGMVNFSEVSGYPVLQHWKVRSVMYHIKLNQVAISQALSNALHSLDGATSRADFVALLDQFGNHYIQEAIYGFEESCSIWYPNKQVQRRLWLEYEDISKGNSPSDESEERERDPKVLTFPEYITSLSDSGTKHMAAGVRMECHSKGRCPSSCPLCHVTSSPDTPAEPVLLEVTKAAPIYELVTNNQTQRLLQEATMSSLWCSGTGDVIEDWCRCDSTAFGADGLPTCAPLPQPVLRLSTVHEPSSTLVVLEWEHSEPPIGVQIVDYLLRQEKVTDRMDHSKVETETVLSFVDDIISGAKSPCAMPSQVPDKQLTTISLIIRCLEPDTIYMFTLWGVDNTGRRSRPSDVIVKTPCPVVDDVKAQEIADKIYNLFNGYTSGKEQQTAYNTLLDLGSPTLHRVLYHYNQHYESFGEFTWRCEDELGPRKAGLILSQLGDLSSWCNGLLQEPKISLRRSSLKYLGCRYSEIKPYGLDWAELSRDLRKTCEEQTLSIPYNDYGDSKEI
B2: Astrotactin-1 (Mus musculus), Q61137-2 (parent)
chain: MALAGLCALFACCWGPAAVLATAAGDVDPSKELECKLKSITVSALPFLRENDLSIMHSPSASEPKLLFSVRNDFPGEMVVVDDLENTELPYFVLEISGNTEDIPLVRWRQQWLENGTLLFHIHHQDGAPSLPGQDPTEEPQHESAEEELRILHISVMGGMIALLLSILCLVMILYTRRRWCKRRRVPQPQKSASAEAANEIHYIPSVLIGGHGRESLRNARVQGHNSSGTLSIRETPILDGYEYDITDLRHHLQRECMNGGEDFASQVTRTLDSLQGCNEKSGMDLTPGSDNAKLSLMNKYKDNIIATSPVDSNHQQATLLSHTSSSQRKRINNKARAGSAFLNPEGDSSTEAENDPQLTFYTDPSRSRRRSRVGSPRSPVNKTTLTLISVTSCVIGLVCSSHVSCPLVVKITLHVPEHLIADGSRFILLEGSQLDASDWLNPAQVVLFSQQNSSGPWAMDLCARRLLDPCEHQCDPETGECLCYEGYMKDPVHKHLCIRNEWGTNQGPWPYTIFQRGFDLVLGEQPSDKIFRFTYTLGEGMWLPLSKSFVIPPAELAINPSAKCKTDMTVMEDAVEVREELMTSSSFDSLEVLLDSFGPVRDCSKDNGGCSKNFRCISDRKLDSTGCVCPSGLSPMKDSSGCYDRHIGVDCSDGFNGGCEQLCLQQMAPFPEDPTLYNILMFCGCIEDYKLGVDGRSCQLVTETCPEGGDCGESREVPMNQTLFGEMFFGYNNQSKEVATGQVLKGTFRQNNFARGLDQQLPDGLVVASVPLENQCLEEISEPTPDPDFLTGMVNFSEVSGYPVLQHWKVRSVMYHIKLNQAAISQAFSNALHSLDGATSRADFVALLDQFGNHYIQEAVYGFEESCSIWYPNKQVQRRLWLEYEDISKGNSPSDESEERERDPKVLTFPEYIASLSDSGTKRMAAGVRMECQSKGRCPSSCPLCHVTSSPETPAEPVLLEVTRASPIYELVTNNQTQRLLQEATMSSLWCSGTGDVIEDWCRCDSTAFGADGLPTCAPLPQPVLRLSTVHEPSSNLVVLEWEHSEPPIGVQIVDYLIRQEKVTDRMDHSKVETETVLSFVDDIISGAKAPCAMPSQVPDKQLTTISLIIRCLEPDTIYMFTLWGVDNTGRRSRPSDVIVKTPCPVVDDVKAQEIADKIYNLFNGYTSGKEQQTAYNTLLDLGSPTLHRVLYHYNQHYESFGEFTWRCEDELGPRKAGLILSQLGDLSSWCNGLLQEPKISLRRGSLKYLGCRYSEIKPYGLDWSELSRDLRKTCEEQTLSVPYNDYGDSKDI
B3: Nuclear factor erythroid 2-related factor 2 (Mus musculus), Q60795 (parent)
chain: MMDLELPPPGLQSQQDMDLIDILWRQDIDLGVSREVFDFSQRQKDYELEKQKKLEKERQEQLQKEQEKAFFAQFQLDEETGEFLPIQPAQHIQTDTSGSASYSQVAHIPKQDALYFEDCMQLLAETFPFVDDHESLALDIPSHAESSVFTAPHQAQSLNSSLEAAMTDLSSIEQDMEQVWQELFSIPELQCLNTENKQLADTTAVPSPEATLTEMDSNYHFYSSISSLEKEVGNCGPHFLHGFEDSFSSILSTDDASQLTSLDSNPTLNTDFGDEFYSAFIAEPSDGGSMPSSAAISQSLSELLDGTIEGCDLSLCKAFNPKHAEGTMEFNDSDSGISLNTSPSRASPEHSVESSIYGDPPPGFSDSEMEELDSAPGSVKQNGPKAQPAHSPGDTVQPLSPAQGHSAPMRESQCENTTKKEVPVSPGHQKAPFTKDKHSSRLEAHLTRDELRAKALHIPFPVEKIINLPVDDFNEMMSKEQFNEAQLALIRDIRRRGKNKVAAQNCRKRKLENIVELEQDLGHLKDEREKLLREKGENDRNLHLLKRRLSTLYLEVFSMLRDEDGKPYSPSEYSLQQTRDGNVFLVPKSKKPDTKKN

Variants of: B1
Settings: with keap1_human KEAP1, Q14145
Sequence of keap1_human KEAP1, Q14145 (Q14145 whole entry): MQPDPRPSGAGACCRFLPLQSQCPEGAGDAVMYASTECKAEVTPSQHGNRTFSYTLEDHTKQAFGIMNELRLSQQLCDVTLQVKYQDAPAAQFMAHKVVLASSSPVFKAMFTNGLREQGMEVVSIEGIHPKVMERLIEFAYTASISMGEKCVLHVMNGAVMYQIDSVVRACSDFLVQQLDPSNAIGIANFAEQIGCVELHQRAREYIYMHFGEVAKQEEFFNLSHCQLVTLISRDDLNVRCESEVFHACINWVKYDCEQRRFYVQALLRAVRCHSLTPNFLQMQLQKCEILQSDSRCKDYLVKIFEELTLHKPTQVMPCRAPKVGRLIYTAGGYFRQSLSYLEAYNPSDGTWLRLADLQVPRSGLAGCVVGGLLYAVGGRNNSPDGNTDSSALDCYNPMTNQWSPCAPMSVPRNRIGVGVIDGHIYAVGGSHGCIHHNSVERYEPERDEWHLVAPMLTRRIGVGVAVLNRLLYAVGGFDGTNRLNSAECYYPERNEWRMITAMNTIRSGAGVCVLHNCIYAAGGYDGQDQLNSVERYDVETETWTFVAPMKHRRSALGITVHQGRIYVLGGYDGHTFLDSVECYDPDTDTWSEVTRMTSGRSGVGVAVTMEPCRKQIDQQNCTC

Row | Variant | effect of a mutation on the interaction
1 | C482S | with no effect
2 | C482S;C484S | increasing interaction strength
3 | C484S | with no effect
4 | C475S | decreasing interaction strength
5 | C475L | with no effect
6 | D476A;E478A | disrupting interaction strength
7 | C475S;C484S | decreasing interaction strength
8 | C475S;C482S | with no effect

Variants of: B1
Settings: with keap1_human KEAP1, Q14145
Remark: another data set of the same source

Row | Variant | effect of a mutation on the interaction
9 | D476A;E478A | decreasing interaction strength

Variants of: B2
Settings: with keap1_mouse Keap1, Q9Z2X8
Target sequence in this assay (Q9Z2X8 whole entry): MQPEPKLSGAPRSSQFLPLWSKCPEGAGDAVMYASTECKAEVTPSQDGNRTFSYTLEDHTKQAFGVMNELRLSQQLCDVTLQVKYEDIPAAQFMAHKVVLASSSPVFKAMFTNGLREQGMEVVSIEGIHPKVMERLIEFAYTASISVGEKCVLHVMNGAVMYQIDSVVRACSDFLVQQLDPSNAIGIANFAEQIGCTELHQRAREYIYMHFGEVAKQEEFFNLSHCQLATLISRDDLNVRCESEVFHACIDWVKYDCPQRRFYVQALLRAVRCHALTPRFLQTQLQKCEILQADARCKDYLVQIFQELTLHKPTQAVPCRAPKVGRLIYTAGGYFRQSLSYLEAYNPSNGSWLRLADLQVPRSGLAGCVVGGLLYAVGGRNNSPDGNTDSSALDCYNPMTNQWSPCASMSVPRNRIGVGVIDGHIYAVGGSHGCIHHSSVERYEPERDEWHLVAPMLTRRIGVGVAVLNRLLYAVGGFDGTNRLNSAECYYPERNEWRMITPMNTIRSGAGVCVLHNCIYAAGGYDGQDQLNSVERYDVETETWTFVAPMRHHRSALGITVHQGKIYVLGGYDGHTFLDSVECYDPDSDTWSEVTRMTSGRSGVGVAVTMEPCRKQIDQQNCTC

Row | Variant | effect of a mutation on the interaction
10 | D476A;E478A | with no effect

Variants of: B3
Settings: with keap1_mouse Keap1, Q9Z2X8
Target sequence in this assay (Q9Z2X8 whole entry): as above

Row | Variant | effect of a mutation on the interaction
11 | D77A;E79A | disrupting interaction strength
